These results are taken from PMC10464304, “Refined read‐out: The hUHRF1 Tandem‐Tudor domain prefers binding to histone H3 tails containing K4me1 in the context of H3K9me2/3” (Protein Science : A Publication of the Protein Society, 2023).

In assay [1] the target is T1, fluorescently labeled H3 peptide carrying only K4me1 (Homo sapiens).
T1 chain: ARTKQTARKSTGGKAPRKQ
Briefly: FP. The following applies: domain or fragment; chains chain; modification not given; K4me1 (monomethyl-lysine at 4); FITC-labeled.

Assay [2] has as its target T2, fluorescently labeled H3 peptide with K4me1 and K9me2 (Homo sapiens).
T2 chain: ARTKQTARKSTGGKAPRKQ
Briefly: FP. The following applies: domain or fragment; chains chain; modification not given; K4me1 (monomethyl-lysine at 4); K9me2 (dimethyl-lysine at 9); FITC-labeled.

For assay [3], the target named is T3, fluorescently labeled H3 peptide with K9me2 (Homo sapiens).
T3 chain: ARTKQTARKSTGGKAPRKQ
In words: FP. The following applies: domain or fragment; chains chain; modification not given; K9me2 (dimethyl-lysine at 9); FITC-labeled.

The target in assay [4] is T4, fluorescently labeled H3 peptide without modification (Homo sapiens).
T4 chain: ARTKQTARKSTGGKAPRKQ
Briefly: FP. The following applies: domain or fragment; chains chain; modification not given; FITC-labeled.

For assay [5], the target named is fluorescently labeled H3 peptide with K4me1 and K9me2. In words: fluorescence polarisation; fluorescence anisotropy titration; 100 nM FITC-labeled peptide in the cuvette, protein added stepwise; 23°C; 100 mM KCl, 20 mM HEPES pH 7.5, 10% v/v glycerol.

Bounds are passed on as bounds.

B1: GST-fused Tandem-Tudor domain (TTD) of human UHRF1, residues 126-280, wild type, Q96T88 126-280 (protein)
chain: MWDETELGLYKVNEYVDARDTNMGAWFEAQVVRVTRKAPSRDEPCSSTSRPALEEDVIYHVKYDDYPENGVVQMNSRDVRARARTIIKWQDLEVGQVVMLNYNPDNPKERGFWYDAEISRKRETRTARELYANVVLGDDSLNDCRIIFVDEVFKI
In the case of B1, the Kd is 3640 nM in assay [1], 300 nM in assay [2], 640 nM in assay [3] and above 9000 nM in assay [4].

B2: GST-fused Tandem-Tudor domain (TTD) of human UHRF1, residues 126-280, wild type (domain or fragment)
chain: B1 chain
The molecule B2 registered a fold preference over the H3K9me2 peptide in assay [5] above 2 fold.
